Laboratory results taken from the DeepSol protein solubility set.

Assay: soluble on expression in E. coli; label from the status in PepcDB or PDB records
With “MQAQQLPYEFFSEENAPKWRGLLVPALKKVQGQVHPTLESNDDALQYVEELILQLLNMLCQAQPRSASDVEERVQKSFPHPIDKWAIADAQSAIEKRKRRNPLSLPVEKIHPLLKEVLGYKIDHQVSVYIVAVLEYISADILKLVGNYVRNIRHYEITKQDIKVAMCADKVLMDMFHQDVEDINILSLTDEEPSTSGEQTYYDLVKAFMAEIRQYIRELNLIIKVFREPFVSNSKLFSANDVENIFSRIVDIHELSVKLLGHIEDTVEMTDEGSPHPLVGSCFEDLAEELAFDPYESYARDILRPGFHDRFLSQLSKPGAALYLQSIGEGFKEAVQYVLPRLLLAPVYHCLHYFELLKQLEEKSEDQEDKECLKQAITALLNVQSGMEKICSKSLAKRRLSESACRFYSQQMKGKQLAIKKMNEIQKNIDGWEGKDIGQCCNEFIMEGTLTRVGAKHERHIFLFDGLMICCKSNHGQPRLPGASNAEYRLKEKFFMRKVQINDKDDTNEYKHAFEIILKDENSVIFSAKSAEEKNNWMAALISLQYRSTLERMLDVTMLQEEKEEQMRLPSADVYRFAEPDSEENIIFEENMQPKAGIPIIKAGTVIKLIERLTYHMYADPNFVRTFLTTYRSFCKPQELLSLIIERFEIPEPEPTEADRIAIENGDQPLSAELKRFRKEYIQPVQLRVLNVCRHWVEHHFYDFERDAYLLQRMEEFIGTVRGKAMKKWVESITKIIQRKKIARDNGPGHNITFQSSPPTVEWHISRPGHIETFDLLTLHPIEIARQLTLLESDLYRAVQPSELVGSVWTKEDKEINSPNLLKMIRHTTNLTLWFEKCIVETENLEERVAVVSRIIEILQVFQELNNFNGVLEVVSAMNSSPVYRLDHTFEQIPSRQKKILEEAHELSEDHYKKYLAKLRSINPPCVPFFGIYLTNILKTEEGNPEVLKRHGKELINFSKRRKVAEITGEIQQYQNQPYCLRVESDIKRFFENLNPMGNSMEKEFTDYLFNKSLEIEPRNPKPLPRFPKKYSYPLKSPGVRPSNPRPGT” the “soluble on expression in E. coli” value was “soluble”. In the case of “MLKVFADRGGTFTDIVAVTHNQEIIERLSKSTERFLIVPLPNQEWIIVYKLLSENPEQYQDAVIQGIRDIIGLSRNEPISDEAIEVVKMGTTVATNALLERKGDRVVLLITTGFKDALRIGYQNRPNIFAQRIVLPTMLYEQVIEVEERYDAQGNELTPVNIAQVKEDLQAVYHTGIRSCAIILMHSDRYPIHEQQVAQIAQEIG”, the “soluble on expression in E. coli” value is reported as “not soluble”. In the case of “MLAVSSAIVSSAMYILSFPGQASGITKEQVTKHMKKESFKQADIYYTSKEKSLLPLTKETLEYAVSINQIMIGYSNQKPIDIIFFLMKNRWRLTPVYWMLEHHHHHH”, the “soluble on expression in E. coli” value is reported as “not soluble”. In the case of “MSKELTAKKRAALNRLKTVRGHLDGIVRMLESDAYCVDVMKQISAVQSSLERANRVMLHNHLETCFSTAVLDGHGQAAIEELIDAVKFTPALTGPHARLGGAAVGESATEEPMPDASNM”, the “soluble on expression in E. coli” value is reported as “soluble”. For “SRGRGGTGGARRLSCGARRRAARGTSPGRRLSTAWSQPQPPPEEYAGADDVSQSPVAEEPSWVPSPRPPVPHESPEPPSGRSLVQRDIQAFLNQCGASPGEARHWLTQFQTCHHSADKPFAVIEVDEEVLKCQQGVSSLAFALAFLQRMDMKPLVVLGLPAPTAPSGCLSFWEAKAQLAKSCKVLVDALRHNAAAAVPFFGGGSVLRAAEPAPHASYGGIVSVETDLLQWCLESGSIPILCPIGETAARRSVLLDSLEVTASLAKALRPTKIIFLNNTGGLRDSSHKVLSNVNLPADLDLVCNAEWVSTKERQQMRLIVDVLSRLPHHSSAVITAASTLLTELFSNKGSGTLFKNAERMLRVRSLDKLDQGRLVDLVNASFGKKLRDDYLASLRPRLHSIYVSEGYNAAAILTMEPVLGGTPYLDKFVVSSSRQGQGSGQMLWECLRRDLQTLFWRSRVTNPINPWYFKHSDGSFSNKQWIFFWFGLADIRDSYELVNHAKGLPDSFHKPASDPGS”, the “soluble on expression in E. coli” value was “soluble”. For “MGSDKIHHHHHHMMAYLVFLGPPGAGKGTYAKRLQEITGIPHISTGDIFRDIVKKENDELGKKIKEIMERGELVPDELVNEVVKRRLSEKDCERGFILDGYPRTVAQAEFLDGFLKTQNKELTAAVLFEVPEEVVVQRLTARRICPKCGRIYNLISLPPKEDELCDDCKVKLVQREDDKEETVRHRYKVYLEKTQPVIDYYDKKGILKRVDGTIGIDNVIAEVLKIIGWSDK”, the “soluble on expression in E. coli” value was “not soluble”. With “MKILHTSDWHIGKTLYGHKRYDEFEAFFSWLVETIEQEQVDVLLIAGDIFDTSTPGNRSQQLYYRFLHRVAASACRHVVIIAGNHDSPSFLSAPRELLRALDVHVTGSLSGNPADEILVLHDPKGDAELIVCAVPHLRDRDIRTAEAGESMEDKSRKLVEGIRDHYAEVINLARLQRTALSSSIPIIAMGHLFVAGGQTVEGDGVRELYVGSLAHVPAGIFPPDIDYLALGHLHVPQRVNGSSVMRYSGSPLPIGFGEADQEKSVCLIEFNRQ” the “soluble on expression in E. coli” value was “not soluble”. For “MRLVYGLGRSGLGVLRFLRKRGLPARFYDDRPREEEVREALALGFQPDWNLEEAYEEVVAAPGVPLDHPHLKRLAARGAKVLGEAELAYRLSPTPIVGITGTAGKTSTTLFTAHLLRAHGLRAREGGNVDPPLVSVVDEAEVAVAELSSFQLERVHAFRPRVAVLLNLGVDHLDRHGTVEAYHAAKLNLLKNLTPEDALVYNRLDPKVRRAAEASPARLYPFTPGSTPRETNLRAVLEATRAYLDLLGRPLDPGAVAEALRTLPEAPHRFQAFARKGGVVFIDDSIATRTEAVRAALEAVPAPIAWILGGEDKGADLAPLLPLLGRVRVALALGRDGPRFARALEGRTEVVVIAEKDGRTAMRKAVEEALSRLEQGSVLLAPLAASFDQFRDYKDRAQAFREAVFALGGEPWTPSSS”, the “soluble on expression in E. coli” value was “soluble”. With “MVKVVGVRFKKAGKIYYFDPGDLEINLHENVIVETARGIEFGQVVVPNTEVSEEEIVAPLKKVIRVATEEDKAHHEDNIRREKEAFDICLQKIANHKLEMKLVGVEYTFDNNKILFYFTADGRVDFRELVKDLASVFRTRIELRQIGVRDEAKMMGGLGVCGRVLCCNSFLGEFQPVSIKMAKEQGLSLNPAKISGACGRLMCCLKYEQEAYEEIISRVPKEGAIVETPDGQGVVMSVSLLKELVKVKLDRENETDLKVYKASEVKVIKDVTREETEEEEIDLDELKQLED” the “soluble on expression in E. coli” value was “soluble”. For “MTDRKIRQISALLIEVYNGIMQVEDKYLRTTQFRDITVKEVHTIDAITMYDYKTTTAVARQLRLSPGTVTASIDKLVRKGYVVRLQSKDDQRVIRLGLTRRGRLIYRAHQSFHRQMTESFLNGMDPEQVDIIEHSLLNLQTFLQIADEKGDSNEND”, the “soluble on expression in E. coli” value was “not soluble”. For “GMTGFVINTRRAPFDDWRLREALLLAFNFEFINDTVTGGVMPRITSYFSGTDLAYRPGTASGREAELLAPFAADLPPGTLEGYALPQGDGTARNRTNLRRAAQFLEQAGFRIEQGQLLGPDGAPLALRFLLRQGDSDMQTVLEIYTRALERLGIAAQIEKVDNAQYTARVAELDFDLTPFRRDLSLSPGNEQRLYWGSHSAGQPGTRNLMGAASPAIDAMIDRMLAATTEDELTAATRALDRVLTAGRYVIPIWRFD”, the “soluble on expression in E. coli” value was “not soluble”. For “MEMKQISETTLKITISMDDLEERGMELKDFLIPQEKTEEFFYSVMDELDLPDNFKDSGMLSFRVTPRKDRLDVFVTKSEINKDINLEDLAEFGDMSQMTPEDFFKSLEQSMREKGDVKAHEKLEKIEEIMEDVVEATLANQSEAADPSTNHESEPLDYVHYVLDFSTITEAVAFAKTIDFSIEASELYKGSNCYHMTILLDVQQQPSYFANVMYARLIEHANPGSKTRAYLQEHGLQLMLDGAVEQLQKIELG”, the “soluble on expression in E. coli” value was “not soluble”. For “TDLSAQKRLAADVLDVGKNRVWFNPERQGDIADAITREDVRELVDEGAIQAKDKKGNSRGRARERQKKRAKGHQKGAGSRKGKAGARQNSKEDWESRIRAQRTKLRELRDEGTLSSSQYRDLYDKAGGGEFDSVADLERYIDANHGDA”, the “soluble on expression in E. coli” value was “soluble”. In the case of “MSIEVGNKLKGKVTGIKKFGAFVELPEGKSGLVHISEVADNYVENVEEHLSVGDEVDVKVLSIADDGKISLSIKKAKDRPRRQHTSKPSHQKPVQKAEDFEKKLSNFLKDSEDKLTSIKRQTESRRGGKGSRR”, the “soluble on expression in E. coli” value is reported as “not soluble”. With “MSLVFDTHLHTLFSTDSKMNIEEAIDAGEKKNLGIIITEHIDLNYPVKGEFVFDIDKYFKEYNKYRSNKVLLGVEIGMGEEIKEQNKSINDKYEFDYVLGSIHLLNGLDLYEKTIYKSSPKKEVFEMYFKTMLACLRCHEYIDSLAHIDYISRYAAYHDGEIYYNEYSDYIDEVLKFIVDREIVIEINTRRLNKKEVCENLMPIYKRYSELGGRFVTIGSDSHYKDSIGLNFKNALKMAENCNLKPVFFEKRLMKYAEGHHHHHH” the “soluble on expression in E. coli” value was “soluble”. In the case of “MAHHHHHHMAHGAAQCTLAAPGCVYLTPEQEEQLVDRLYTQSLLQKEATLAELDARYYPVTASQTISQETLQKSVQRQVDVEMERRQQRRKEMDAMAVAKAMGHASGSRAAASKKTVTAEETDVSVRRLYDDALAQKKARKAESERLYAFHPEDLKSAKMSKAALQESVNRMSKPKKTEFAVAEVNKIYGL”, the “soluble on expression in E. coli” value is reported as “soluble”. For “MNNDHLDPINSLNVPELADTTFAMDFLIRAKEGVRNTAVALTETASPDVRALLRKQLMQGIAMHQEITELMISKKWFHPYELSEQYKLDQLSAKNTIMVGNMNLFPDETNRKGMFDRTPDEHMAGDPLEHHHHHH”, the “soluble on expression in E. coli” value was “not soluble”. With “MKLKTNIRHLHGIIRVPGDKSISHRSIIFGSLAEGETKVYDILRGEDVLSTMQVFRDLGVEIEDKDGVITVQGVGMAGLKAPQNALNMGNSGTSIRLISGVLAGADFEVEMFGDDSLSKRPMDRVTLPLKKMGVSISGQTERDLPPLRLKGTKNLRPIHYELPIASAQVKSALMFAALQAKGESVIIEKEYTRNHTEDMLQQFGGHLSVDGKKITVQGPQKLTGQKVVVPGDISSAAFWLVAGLIAPNSRLVLQNVGINETRTGIIDVIRAMGGKLEITEIDPVAKSATLIVESSDLKGTEICGALIPRLIDELPIIALLATQAQGVTVIKDAEELKVKETDRIQVVADALNSMGADITPTADGMIIKGKSALHGARVNTFGDHRIGMMTAIAALLVADGEVELDRAEAINTSYPSFFDDLESLIHG” the “soluble on expression in E. coli” value was “soluble”. For “MGSDKIHHHHHHMILMNNPGDKEVLRLLKQRMESVSQVEETVKEIIRRVKEEGDRALEEFLKRFEKHPVGIENLRVTEKEISEAQVEEEFVETIKIVIEDLKEFHRRQEERSFFFTTKGGSFLGEMVVPLESVGIYVPGGKVPYFSTLLMCAVPAIVAGVERIAVTTPPNENGGISPYILKTCEILGLKEIYRMGGAHAVAALTYGTETVKPVDKIVGPGGVFVTLAKKHVYGDVGIDSIAGPSEIAIVTDGSADLDLIAADFLSQAEHDENAMSVVITTSKEVFEKLPQVIERHLEALPEERRKTARISTENFGTIILTDSLKRAFEISNLIAPEHLEVLVENPFEPLGHIKNAGSVFLGKYTCESVGDYGAGPNHVLPTFRSARFSSGLRVSDFTKKIFITHLSEEDFRRKSELYSKMARWEGFEAHARAIDVRREKL”, the “soluble on expression in E. coli” value was “not soluble”. In the case of “MGSDKIHHHHHHQDGPLRIEITDGVIEPLPFAVPDFIADTPAAAQYATDIARVIAQDLVGSGLFREIPKVAYISPYTDFDAEVNFTDWKAINAQALIAGAVSLSGDRITVRFRGYDVFAGQELGAGLQLSGTTDGWRRIAHKVADTIYSRLTGEGGYFDSRVVFVSETGPKNDRKKRLAIMDYDGANVQYLTNSDAIVLAPRFSPTGDRVLYTSYESGFPQIHVLDVGRVQRRVLSAGNGSMSFAPRFAPNGQTIVYSQSQGGNTDLFSMDINSGNPQRLTSAPSIETAPSFSPDGSQIVFESDRSGTSQLYVMSASGGEAKRISFGQGRYGTPVWSPRGDYIAFTKQNAGRFHIGVMRTDGSEERLLTASFLDEGPTWSPNGRVIMFTRETQGASGQARLYSVDISGRNLKPVKTPDGASDPSWSPLQN”, the “soluble on expression in E. coli” value is reported as “not soluble”.
